Entries after “also recorded” stand apart in the source; their conditions may differ.
System: A375.S2 xenograft tumors
Assay type: in vivo
Protocol: Immunohistochemistry was performed as described previously (Guo et al., 2012 Cancer science. 103:1474-80). Briefly, tumor tissues were formalin-fixed, paraffin-embedded and cut into 5-μm sections on glass slides. The slides were de-paraffinized and hydrated, followed by antigen retrieval in a pressure cooker containing 10 mM sodium citrate, pH6 buffer. The sections were blocked in 3% hydrogen peroxide for 30 min and 2.5% normal horse serum in PBS/0.1% Tween20 for 1 h followed by incubation with primary antibody and isotype control IgG overnight at 4° C. The following antibodies were used in this study: m28-RNLS at 500 ng/ml; goat polyclonal anti-RNLS at 250 ng/ml (Abcam, ab31291); rabbit monoclonal anti-CD68 (BDBioscience, 1:100); rabbit monoclonal anti-CD163 (AbD Serotec, 1:100); rabbit monoclonal anti-CD86 (Abcam, 1:100); rabbit monoclonal anti-Ki67 (Vector Lab, VP-RM04, 1:100); rabbit monoclonal anti-p21, phspho-Tyr^705-Stat3, and total Stat3 (Cell Signaling Technologies, #2947, 1:100, #9145, 1:400, and #4904, 1:400, respectively). ImmPRESS peroxidase-anti-rabbit IgG (Vector Laboratories, Burlingame, Calif., USA) was used to detect primary antibodies. The color was developed using a Vector DAB substrate kit and counterstained with hematoxylin (Vector Laboratories). Slides were observed and photographed using an Olympus BX41 microscope and camera (Olympus America Inc, Center Valley, Pa., USA).
Female athymic, 18-20 g nude mice (nu/nu) were obtained from Charles River (Willimantic, Conn.) and housed in microisolator cages, with autoclaved bedding in a specific pathogen-free facility, with a 12-h light/dark cycle.
Xenograft tumors were established by subcutaneous injection of A375.S2 cells (2×10^6 in 100 μl of PBS, pH 7.6). When the tumors reached a volume of 50-100 mm^3, the mice were divided into a control group (n=14 treated with rabbit IgG, 40 μg by intraperitoneal injection (IP) once weekly, and 40 ug subcutaneously (SQ) around the tumor site every 3 days), and an experimental group (n=14) that received m28-RNLS (40 μg IP, once weekly, and 40 ug SQ, every 3 days). Tumor size was measured with digital calipers and volume was calculated according to the formula (length×width)×π/2.
At the end of the study, the mice were sacrificed, the tumors were excised and immediately snap-frozen in liquid nitrogen and stored at −80° C. Apoptosis was examined using the TUNEL assay (Roche in situ Apoptosis Detection System), according to the manufacturer's instructions. Sections were examined by light microscopy and the apoptosis index was determined by counting >1000 cells in 10 randomly selected high-power fields (×200 magnification).

B1: 1D-28-4: rabbit anti-renalase monoclonal raised against peptide RP-220 (antigen 1D); heavy chain SEQ ID NO:9, light chain SEQ ID NO:10 (antibody)
heavy: METGLRWLLLVAVLKGVQCQSVEESGGRLVTPGTPLTLTCTVSGFSLSSFAVGWVRQAPGKGLEYIGIISSVGITRYASWAAGRFTISKTSTTVDLKITSPTTEDTATYFCARYGYSGDVNRLDLWGQGTLVTVSSGQPKAPSVFPLAPCCGDTPSSTVTLGCLVKGYLPEPVTVTWNSGTLTNGVRTFPSVRQSSGLYSLSSVVSVTSSSQPVTCNVAHPATNTKVDKTVAPSTCSKPTCPPPELLGGPSVFIFPPKPKDTLMISRTPEVTCVVVDVSQDDPEVQFTWYINNEQVRTARPPLREQQFNSTIRVVSTLPIAHQDWLRGKEFKCKVHNKALPAPIEKTISKARGQPLEPKVYTMGPPREELSSRSVSLTCMINGFYPSDISVEWEKNGKAEDNYKTTPAVLDSDGSYFLYSKLSVPTSEWQRGDVFTCSVMHEALHNHYTQKSISRSPGK
light: MDTRAPTQLLGLLLLWLPGATFAQVLTQTASPVSAAVGGTVTINCQASQSVYDNNNLAWYQQKPGQPPKQLIYGASTLASGVSSRFKGSGSGTQFTLTISGVQCDDAATYYCLGEFSCSSADCFAFGGGTEVVVKGDPVAPTVLIFPPSADLVATGTVTIVCVANKYFPDVTVTWEVDGTTQTTGIENSKTPQNSADCTYNLSSTLTLTSTQYNSHKEYTCKVTQGTTSVVQSFNRGDC
modifications: oryctolagus cuniculus
Ki67 positive cells (IHC of xenografted tumors): 13.4±3.0 positive cells/high power field | p21 positive cells (IHC of xenografted tumors): 24.2±2.4 positive cells | number of CD163+ TAMs (immunofluorescence of xenografts, listed as m28-RNLS): decreases CD163+TAMs | total and phosphorylated STAT3 in tumors (immunofluorescence, listed as m28-RNLS): marked reduction; also recorded: dramatic reduction | ratio of CD86+ to CD163+ TAMs (mouse, in vivo): increases the ratio | toxicity of antibody treatment (overall animal health and activity): did not appear to be toxic | mouse RNLS expression in tumor mass (qPCR, mouse specific primers): significant reduction | p-Y705-STAT3 and total STAT3 in tumors (western blot): significantly decreased

— patent US11370846B2, “Compositions and methods to regulate Renalase in the treatment of cancer” (Yale University, priority 2014, dated 2022)
